Patent publication US20240018213A1 (OHIO STATE INNOVATION FOUNDATION, published 2024)

How the values were obtained:
mNotch1ECD-Fc [1] = target: T1, mNotch1ECD-Fc (mouse, UniProt Q01705 19-1725); test: SPR, signal on immobilized mNotch1ECD-Fc against immobilized BSA negative control at the same Tan 6 concentrations
T1 construct: extracellular domain; Immobilized on the SPR chip; also called mouse full length notch extracellular domain; not shown: Fc part
Experimental: (§1) FIG. 25. Open surface plasmon resonance (SPR) binding experiments of DLL1 Tandem 6× against immobilized mouse full length notch extracellular domain (Top) and BSA negative control (bottom). DLL1 Tandem 6× was injected at concentrations of 2.2 μM, 0.45 μM, 0.22 μM, 0.11 μM, and 0 μM (HBS buffer only). Signal to noise of these binding experiments were 3 to 1.
(§2) The signal:noise of binding to Notch1 versus BSA is about 3:1 at the same concentrations.

mNotch1ECD-Fc [2] = target: T1, mNotch1ECD-Fc; test: SPR (open SPR), mNotch1ECD-Fc immobilized, Tan 6 injected at 2.2, 0.45, 0.22, 0.11 and 0 µM; apparent KD
Experimental: as §1, §2

T1 sequence (Q01705 19-1725): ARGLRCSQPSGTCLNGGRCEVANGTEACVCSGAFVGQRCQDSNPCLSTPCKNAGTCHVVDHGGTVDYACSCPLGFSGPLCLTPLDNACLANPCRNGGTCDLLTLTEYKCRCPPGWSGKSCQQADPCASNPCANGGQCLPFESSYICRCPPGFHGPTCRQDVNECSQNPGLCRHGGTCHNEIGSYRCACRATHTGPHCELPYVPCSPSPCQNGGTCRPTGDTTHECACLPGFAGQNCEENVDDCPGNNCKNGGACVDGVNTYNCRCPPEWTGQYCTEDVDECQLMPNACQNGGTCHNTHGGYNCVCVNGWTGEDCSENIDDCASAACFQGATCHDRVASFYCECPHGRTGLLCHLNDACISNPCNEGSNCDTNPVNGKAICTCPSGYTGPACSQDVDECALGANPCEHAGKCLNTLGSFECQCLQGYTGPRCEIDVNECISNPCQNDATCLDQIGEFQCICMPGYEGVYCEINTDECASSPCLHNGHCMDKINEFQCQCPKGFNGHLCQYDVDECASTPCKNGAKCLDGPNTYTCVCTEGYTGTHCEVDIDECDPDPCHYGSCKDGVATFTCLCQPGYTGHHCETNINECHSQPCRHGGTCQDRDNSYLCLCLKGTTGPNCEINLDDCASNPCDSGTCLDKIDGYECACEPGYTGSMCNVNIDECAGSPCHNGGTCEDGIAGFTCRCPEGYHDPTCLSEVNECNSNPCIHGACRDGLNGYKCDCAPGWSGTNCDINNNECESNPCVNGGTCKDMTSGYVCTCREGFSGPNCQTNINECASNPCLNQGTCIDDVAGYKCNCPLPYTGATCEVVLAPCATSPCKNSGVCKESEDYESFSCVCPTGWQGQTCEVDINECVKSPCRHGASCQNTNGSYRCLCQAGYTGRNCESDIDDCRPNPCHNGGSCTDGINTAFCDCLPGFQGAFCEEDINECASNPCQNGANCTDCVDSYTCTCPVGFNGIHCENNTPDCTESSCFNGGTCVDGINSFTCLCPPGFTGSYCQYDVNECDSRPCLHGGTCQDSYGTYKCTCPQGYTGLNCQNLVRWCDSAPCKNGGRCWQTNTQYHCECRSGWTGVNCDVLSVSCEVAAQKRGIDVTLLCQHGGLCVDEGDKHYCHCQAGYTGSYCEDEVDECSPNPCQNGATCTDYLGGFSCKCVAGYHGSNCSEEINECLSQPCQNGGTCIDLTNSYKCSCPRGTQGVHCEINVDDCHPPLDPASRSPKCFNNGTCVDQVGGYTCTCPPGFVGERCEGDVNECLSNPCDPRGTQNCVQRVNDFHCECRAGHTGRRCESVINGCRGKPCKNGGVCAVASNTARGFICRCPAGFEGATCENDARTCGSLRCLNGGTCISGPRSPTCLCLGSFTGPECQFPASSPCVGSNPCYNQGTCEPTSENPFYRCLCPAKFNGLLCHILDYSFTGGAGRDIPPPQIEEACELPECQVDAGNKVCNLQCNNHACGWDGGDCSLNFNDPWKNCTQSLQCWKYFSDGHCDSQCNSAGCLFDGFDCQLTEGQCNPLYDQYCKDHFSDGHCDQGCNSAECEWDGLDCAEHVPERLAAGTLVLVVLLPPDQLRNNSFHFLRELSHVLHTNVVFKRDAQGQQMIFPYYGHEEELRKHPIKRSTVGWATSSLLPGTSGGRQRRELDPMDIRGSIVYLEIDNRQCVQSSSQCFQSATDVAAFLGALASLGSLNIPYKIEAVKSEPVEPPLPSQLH

- signal:noise of binding to Notch1 versus BSA (mNotch1ECD-Fc [1]): ~3 ratio (Notch1 : BSA)
- Kd (mNotch1ECD-Fc [2]): 1500 nM
B1: MuDLL1.DSL-EGF12.Tan 6 (NL 99) (ligand)
chain: MAAHHHHHHGGENLYFQGFVCDEHYYGEGCSVFCRPRDDAFGHFTCGDRGEKMCDPGWKGQYCTDPICLPGCDDQHGYCDKPGECKCRVGWQGRYCDECIRYPGCLHGTCQQPWQCNCQEGWGGLFCNQGSSGSSGFVCDEHYYGEGCSVFCRPRDDAFGHFTCGDRGEKMCDPGWKGQYCTDPICLPGCDDQHGYCDKPGECKCRVGWQGRYCDECIRYPGCLHGTCQQPWQCNCQEGWGGLFCNQGSSGSSGFVCDEHYYGEGCSVFCRPRDDAFGHFTCGDRGEKMCDPGWKGQYCTDPICLPGCDDQHGYCDKPGECKCRVGWQGRYCDECIRYPGCLHGTCQQPWQCNCQEGWGGLFCNQGSSGSSGFVCDEHYYGEGCSVFCRPRDDAFGHFTCGDRGEKMCDPGWKGQYCTDPICLPGCDDQHGYCDKPGECKCRVGWQGRYCDECIRYPGCLHGTCQQPWQCNCQEGWGGLFCNQGSSGSSGFVCDEHYYGEGCSVFCRPRDDAFGHFTCGDRGEKMCDPGWKGQYCTDPICLPGCDDQHGYCDKPGECKCRVGWQGRYCDECIRYPGCLHGTCQQPWQCNCQEGWGGLFCNQGSSGSSGFVCDEHYYGEGCSVFCRPRDDAFGHFTCGDRGEKMCDPGWKGQYCTDPICLPGCDDQHGYCDKPGECKCRVGWQGRYCDECIRYPGCLHGTCQQPWQCNCQEGWGGLFCNQ
notes: also called DLL1 Tandem 6×; hexamer
